Assays:
[1] = substrate: Nc1nc2c(ncn2[C@@H]2O[C@H](COP(=O)(O)OP(=O)(O)OP(=O)(O)O)[C@@H](O)[C@H]2O)c(=O)[nH]1; assay: diguanylate cyclase assay, Michaelis-Menten and Lineweaver-Burk; type: biochemical, Nostoc sp. PCC 7120 = FACHB-418; settings: c-di-GMP synthesis; GTP varied
Excerpt: diguanylate cyclase assay, Michaelis-Menten and Lineweaver-Burk on CdgS (All2874) | kinetic curves for c-di-GMP synthesis of CdgS and CdgS^D60A followed Michaelis–Menten kinetics

[2] = substrate: Nc1nc2c(ncn2[C@@H]2O[C@H](COP(=O)(O)OP(=O)(O)OP(=O)(O)O)[C@@H](O)[C@H]2O)c(=O)[nH]1; assay: as above; type: biochemical, Nostoc sp. PCC 7120 = FACHB-418; settings: c-di-GMP synthesis; GTP varied; remark: listed apart in the source
Excerpt: diguanylate cyclase assay, Michaelis-Menten and Lineweaver-Burk on CdgS (All2874) | CdgS^D60A could still synthesize c-di-GMP using GTP as the substrate

Protein	Km [1] [µM]	kcat [1] [s⁻¹]	Km [2] [µM]	kcat [2] [s⁻¹]
CdgS (All2874) (Nostoc sp. PCC 7120 = FACHB-418) (protein, REC-GGDEF response regulator; recombinant from E. coli BL21(DE3), pHTwinStrep vector (two tandem C-terminal Strep-tags)) MKNTVPESQCLILIVDDEPFIRAQLRLSLQCEGYRTAEAEDGRQALAIFQELQPDIVLLDAIMPDLDGFECCTRLQLLEDGKYTPVLMITGLEDQESVDRAFEVGAIDYVTKPIHWPVLRQRVKRLIQQFHLQQKLEAANRELQRLVTIDELTQVANRRRFEEYCAQEWQRMARDQLPLSLILCDVDFFKAYNDTYGHRAGDRCLQLVAKAIESCVNRPADVVARYGGEEFAVILPRTYPDGAIHLANAICTAVRELQITHLTSQANTCVTISAGVATEIPVPNSDFQEIINAADRALYQAKMTGRDGCQQYIKQSSSPVYFLNAHHRLA	5.84	73.68		
CdgS (All2874) (Nostoc sp. PCC 7120 = FACHB-418; D60A) (protein, REC-GGDEF response regulator; recombinant from E. coli BL21(DE3), pHTwinStrep vector (two tandem C-terminal Strep-tags)) MKNTVPESQCLILIVDDEPFIRAQLRLSLQCEGYRTAEAEDGRQALAIFQELQPDIVLLAAIMPDLDGFECCTRLQLLEDGKYTPVLMITGLEDQESVDRAFEVGAIDYVTKPIHWPVLRQRVKRLIQQFHLQQKLEAANRELQRLVTIDELTQVANRRRFEEYCAQEWQRMARDQLPLSLILCDVDFFKAYNDTYGHRAGDRCLQLVAKAIESCVNRPADVVARYGGEEFAVILPRTYPDGAIHLANAICTAVRELQITHLTSQANTCVTISAGVATEIPVPNSDFQEIINAADRALYQAKMTGRDGCQQYIKQSSSPVYFLNAHHRLA			6.33	60.53
